Blank lines part the entries; values can stand above or below the binder they belong to.
Key:
[1] = biological target: T1, human OX40 on cells (CHO-hOX40, 293HEK-hOX40, Jurkat-hOX40, activated primary CD4+ T cells) (human, UniProt P43489 29-277); test: cell-based or functional assay
T1 sequence (looked up): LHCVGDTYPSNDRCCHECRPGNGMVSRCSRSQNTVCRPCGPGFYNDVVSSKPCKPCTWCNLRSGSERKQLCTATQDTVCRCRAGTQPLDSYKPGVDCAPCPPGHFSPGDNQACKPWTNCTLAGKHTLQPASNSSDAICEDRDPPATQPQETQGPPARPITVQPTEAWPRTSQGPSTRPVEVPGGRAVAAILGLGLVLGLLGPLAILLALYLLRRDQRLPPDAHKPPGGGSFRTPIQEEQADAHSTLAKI

[2] = biological target: T2, mouse OX40Fc (Acro Biosystems) (mouse, UniProt P47741 20-211, limits assumed); test: BLI, IgG1 on tip, mouse OX40-Fc in solution
T2 construct: Bought; not shown: Fc
T2 sequence (looked up): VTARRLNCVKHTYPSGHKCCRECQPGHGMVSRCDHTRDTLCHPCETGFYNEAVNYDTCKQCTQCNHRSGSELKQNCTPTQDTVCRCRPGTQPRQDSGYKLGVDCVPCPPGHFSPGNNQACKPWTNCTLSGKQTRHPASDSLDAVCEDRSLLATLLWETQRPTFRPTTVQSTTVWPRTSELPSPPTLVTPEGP

[3] = biological target: T1, human OX40 on cells (CHO-hOX40, …); test: flow cytometry, MFI on CHO-hOX40 over wild-type CHO
[4] = biological target: T1, human OX40 on cells (CHO-hOX40, …); test: flow cytometry, CHO-hOX40, 100 nM
[5] = biological target: T3, human OX40_Fc (R&D Systems) (human, UniProt P43489 29-216); test: BLI, IgG1 on tip, hOX40-Fc 50 nM, avid
T3 construct: Bought

[6] = biological target: T4, cyno OX40_Fc (Acro Biosystems) (cyno); test: BLI, IgG1 on tip, cyno OX40-Fc 100 nM, avid
T4 construct: Bought

[7] = biological target: T1, human OX40 on cells (CHO-hOX40, …); test: flow cytometry, CHO-hOX40, 3.125 nM
[8] = biological target: T1, human OX40 on cells (CHO-hOX40, …); test: flow cytometry, CHO-hOX40, 0.09765625 nM
[9] = biological target: T1, human OX40 on cells (CHO-hOX40, …); test: flow cytometry, CHO-hOX40, 0.390625 nM
[10] = biological target: T1, human OX40 on cells (CHO-hOX40, …); test: flow cytometry, CHO-hOX40, 6.25 nM
[11] = biological target: T1, human OX40 on cells (CHO-hOX40, …); test: flow cytometry, CHO-hOX40, IgG2 made in 293HEK
[12] = biological target: T1, human OX40 on cells (CHO-hOX40, …); test: flow cytometry, CHO-hOX40, 12.5 nM
[13] = biological target: T1, human OX40 on cells (CHO-hOX40, …); test: flow cytometry, CHO-hOX40, 200 nM
[14] = biological target: T1, human OX40 on cells (CHO-hOX40, …); test: flow cytometry, CHO-hOX40, 50 nM
[15] = biological target: T1, human OX40 on cells (CHO-hOX40, …); test: flow cytometry, CHO-hOX40, 0.024414063 nM
[16] = biological target: T1, human OX40 on cells (CHO-hOX40, …); test: flow cytometry, CHO-hOX40, 0.78125 nM
[17] = biological target: T1, human OX40 on cells (CHO-hOX40, …); test: flow cytometry, CHO-hOX40, 1.5625 nM
[18] = biological target: T1, human OX40 on cells (CHO-hOX40, …); test: flow cytometry, CHO-hOX40, 100 nM; remark: listed apart in the source
[19] = biological target: T1, human OX40 on cells (CHO-hOX40, …); test: flow cytometry, CHO-hOX40, 0.1953125 nM
[20] = biological target: T1, human OX40 on cells (CHO-hOX40, …); test: flow cytometry, CHO-hOX40, 0.048828125 nM
[21] = biological target: T1, human OX40 on cells (CHO-hOX40, …); test: flow cytometry, CHO-hOX40, 25 nM

B1: ADI-23515, IgG2 format (antibody)
heavy: QVQLQESGPGLVKPSQTLSLTCTVSGGSIRSGAYYWSWIRQHPGKGLEWIGYIYYDGQTYYNPSLKSRVTISVDTSKNQFSLKLSSVTAADTAVYYCARDVGYPHYYGMDVWGQGTTVTVSSASTKGPSVFPLAPCSRSTSESTAALGCLVKDYFPEPVTVSWNSGALTSGVHTFPAVLQSSGLYSLSSVVTVPSSNFGTQTYTCNVDHKPSNTKVDKTVERKCCVECPPCPAPPVAGPSVFLFPPKPKDTLMISRTPEVTCVVVDVSHEDPEVQFNWYVDGVEVHNAKTKPREEQFNSTFRVVSVLTVVHQDWLNGKEYKCKVSNKGLPAPIEKTISKTKGQPREPQVYTLPPSREEMTKNQVSLTCLVKGFYPSDIAVEWESNGQPENNYKTTPPMLDSDGSFFLYSKLTVDKSRWQQGNVFSCSVMHEALHNHYTQKSLSLSPG
light: EIVLTQSPGTLSLSPGERATLSCRASQSVSSSYLAWYQQKPGQAPRLLIYGASSRATGIPDRFSGSGSGTDFTLTISRLEPEDFAVYYCQQSERSPFTFGGGTKVEIKRTVAAPSVFIFPPSDEQLKSGTASVVCLLNNFYPREAKVQWKVDNALQSGNSQESVTEQDSKDSTYSLSSTLTLSKADYEKHKVYACEVTHQGLSSPVTKSFNRGEC
EC50, NFkB-luciferase reporter in Jurkat-hOX40 [1]: 0.39 nM

B3: ADI-20118, IgG2 format (antibody)
heavy: QVQLVQSGAEVKKPGASVKVSCKASGYTFTSYAISWVRQAPGQGLEWMGWISAYNGNTNYAQKLQGRVTMTTDTSTSTAYMELRSLRSDDTAVYYCARSGGGSGPNWFDPWGQGTLVTVSSASTKGPSVFPLAPCSRSTSESTAALGCLVKDYFPEPVTVSWNSGALTSGVHTFPAVLQSSGLYSLSSVVTVPSSNFGTQTYTCNVDHKPSNTKVDKTVERKCCVECPPCPAPPVAGPSVFLFPPKPKDTLMISRTPEVTCVVVDVSHEDPEVQFNWYVDGVEVHNAKTKPREEQFNSTFRVVSVLTVVHQDWLNGKEYKCKVSNKGLPAPIEKTISKTKGQPREPQVYTLPPSREEMTKNQVSLTCLVKGFYPSDIAVEWESNGQPENNYKTTPPMLDSDGSFFLYSKLTVDKSRWQQGNVFSCSVMHEALHNHYTQKSLSLSPG
light: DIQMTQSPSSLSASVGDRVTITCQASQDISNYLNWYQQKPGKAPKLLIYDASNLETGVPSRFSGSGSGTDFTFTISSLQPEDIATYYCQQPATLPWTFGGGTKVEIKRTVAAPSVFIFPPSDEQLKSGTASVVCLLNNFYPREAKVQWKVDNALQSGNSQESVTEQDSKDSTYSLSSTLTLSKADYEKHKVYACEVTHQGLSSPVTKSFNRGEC
notes: Made in 293HEK cells
MFI [7]: 600000 MFI
MFI [8]: 36800 MFI
MFI [9]: 120000 MFI
MFI [10]: 889000 MFI
EC50 [11]: 5.84 nM
MFI [12]: 1.13e+06 MFI
MFI [13]: 1.72e+06 MFI
MFI [14]: 1.38e+06 MFI
MFI [15]: 16500 MFI
MFI [16]: 207000 MFI
MFI [17]: 352000 MFI
MFI [18]: 1.53e+06 MFI
MFI [19]: 60400 MFI
MFI [20]: 18400 MFI
MFI [21]: 1.5e+06 MFI

Further lines, results first:

EC50, NFkB-luciferase reporter in Jurkat-hOX40 mixed with Raji cells [1]: 0.0282 nM
binding result [2]: no binding (tested: 100 nM)
Fold difference [3]: 2260 fold
CHO-OX40 binding intensity (MFI) [4]: 252000 MFI
Kd [5]: 0.283 nM
Kd [6]: 1.53 nM
B2: ADI-25654, IgG1 format (antibody, V domains shown)
VH: QVQLVESGGGVVQPGRSLRLSCAASGFTFRSYDMHWVRQAPGKGLEWVAYIAYDGSNKYYADSVKGRFTISRDNSKNTLYLQMNSLRAEDTAVYYCARGRPWYSETGTSAFDIWGQGTMVTVSS
VL: DIQMTQSPSSLSASVGDRVTITCQASQDISNYLNWYQQKPGKAPKLLIYDASNLETGVPSRFSGSGSGTDFTFTISSLQPEDIATYYCQQSDHYPTFGGGTKVEIKR
notes: Made in yeast or CHO cells; also called ADI-25654-g1

MFI [7]: 913000 MFI
MFI [8]: 40700 MFI
MFI [9]: 156000 MFI
MFI [10]: 1.33e+06 MFI
EC50 [11]: 5.49 nM
MFI [12]: 1.62e+06 MFI
MFI [13]: 2.51e+06 MFI
MFI [14]: 2.1e+06 MFI
MFI [15]: 20900 MFI
MFI [16]: 315000 MFI
MFI [17]: 611000 MFI
MFI [18]: 2.35e+06 MFI
MFI [19]: 80500 MFI
MFI [20]: 19400 MFI
MFI [21]: 2.33e+06 MFI
B4: ADI-20051, IgG2 format (antibody)
heavy: QVQLQQWGAGLLKPSETLSLTCAVYGGSFSGYYWSWIRQPPGKGLEWIGEIDHSGSTNYNPSLKSRVTISVDTSKNQFSLKLSSVTAADTAVYYCARDGGGGYASPFDYWGQGTLVTVSSASTKGPSVFPLAPCSRSTSESTAALGCLVKDYFPEPVTVSWNSGALTSGVHTFPAVLQSSGLYSLSSVVTVPSSNFGTQTYTCNVDHKPSNTKVDKTVERKCCVECPPCPAPPVAGPSVFLFPPKPKDTLMISRTPEVTCVVVDVSHEDPEVQFNWYVDGVEVHNAKTKPREEQFNSTFRVVSVLTVVHQDWLNGKEYKCKVSNKGLPAPIEKTISKTKGQPREPQVYTLPPSREEMTKNQVSLTCLVKGFYPSDIAVEWESNGQPENNYKTTPPMLDSDGSFFLYSKLTVDKSRWQQGNVFSCSVMHEALHNHYTQKSLSLSPG
light: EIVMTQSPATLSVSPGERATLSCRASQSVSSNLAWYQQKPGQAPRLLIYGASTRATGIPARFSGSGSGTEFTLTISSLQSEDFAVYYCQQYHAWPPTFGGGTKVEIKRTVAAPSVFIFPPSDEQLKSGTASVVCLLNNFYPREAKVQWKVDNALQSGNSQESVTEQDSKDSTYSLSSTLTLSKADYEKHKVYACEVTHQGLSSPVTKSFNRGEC
notes: Made in 293HEK cells

EC50, NFkB-luciferase reporter in Jurkat-hOX40 mixed with Raji cells [1]: 0.246 nM
MFI [7]: 985000 MFI
MFI [8]: 48500 MFI
MFI [9]: 189000 MFI
MFI [10]: 1.43e+06 MFI
EC50 [11]: 2.78 nM
MFI [12]: 1.34e+06 MFI
MFI [13]: 1.79e+06 MFI
MFI [14]: 1.55e+06 MFI
MFI [15]: 24600 MFI
MFI [16]: 314000 MFI
MFI [17]: 602000 MFI
MFI [18]: 1.78e+06 MFI
MFI [19]: 94200 MFI
MFI [20]: 25700 MFI
MFI [21]: 1.83e+06 MFI
B5: ADI-20112, IgG2 format (antibody)
heavy: QVQLVESGGGVVQPGRSLRLSCAASGFTFSSYGMHWVRQAPGKGLEWVAVISYDGSNKYYADSVKGRFTISRDNSKNTLYLQMNSLRAEDTAVYYCARGRPWYSETGTSAFDIWGQGTMVTVSSASTKGPSVFPLAPCSRSTSESTAALGCLVKDYFPEPVTVSWNSGALTSGVHTFPAVLQSSGLYSLSSVVTVPSSNFGTQTYTCNVDHKPSNTKVDKTVERKCCVECPPCPAPPVAGPSVFLFPPKPKDTLMISRTPEVTCVVVDVSHEDPEVQFNWYVDGVEVHNAKTKPREEQFNSTFRVVSVLTVVHQDWLNGKEYKCKVSNKGLPAPIEKTISKTKGQPREPQVYTLPPSREEMTKNQVSLTCLVKGFYPSDIAVEWESNGQPENNYKTTPPMLDSDGSFFLYSKLTVDKSRWQQGNVFSCSVMHEALHNHYTQKSLSLSPG
light: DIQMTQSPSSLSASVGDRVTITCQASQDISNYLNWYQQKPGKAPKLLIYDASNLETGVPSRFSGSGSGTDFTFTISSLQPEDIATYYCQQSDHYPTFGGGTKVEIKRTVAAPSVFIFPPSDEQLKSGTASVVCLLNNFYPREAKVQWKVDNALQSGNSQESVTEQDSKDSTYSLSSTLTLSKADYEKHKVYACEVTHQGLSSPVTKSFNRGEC
notes: Made in 293HEK or CHO cells; also called ADI-20112-g2
